The target of the test is recombinant VEGF165 protein (human) (UniProt P15692). Put plainly: SPR in vitro binding, drug and recombinant VEGF165, 37 C.
recombinant VEGF165 protein (human), sequence (P15692 other isoform, or with tags, fused parts or gaps): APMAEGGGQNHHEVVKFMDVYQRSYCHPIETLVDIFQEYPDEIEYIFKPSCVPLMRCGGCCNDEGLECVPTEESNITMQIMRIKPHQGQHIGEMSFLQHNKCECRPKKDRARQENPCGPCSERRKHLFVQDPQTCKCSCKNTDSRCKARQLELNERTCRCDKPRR

As usually defined, the Kd is the free concentration of one partner at which half of the binding sites on the other are occupied at equilibrium, for simple one-to-one binding. Turning to aflibercept (Fc fusion), the Kd was 0.457 nM.

The values above are taken from US20230416351A1.
